Biological target: the molecule itself
Experiment: native MS

B1: Bacillus subtilis pyruvate kinase PykA (enzyme, B. subtilis, UniProt P80885 1-585, looked up)
chain: MRKTKIVCTIGPASESIEMLTKLMESGMNVARLNFSHGDFEEHGARIKNIREASKKLGKNVGILLDTKGPEIRTHTMENGGIELETGKELIISMDEVVGTTDKISVTYEGLVHDVEQGSTILLDDGLIGLEVLDVDAAKREIKTKVLNNGTLKNKKGVNVPGVSVNLPGITEKDARDIVFGIEQGVDFIAPSFIRRSTDVLEIRELLEEHNAQDIQIIPKIENQEGVDNIDAILEVSDGLMVARGDLGVEIPAEEVPLVQKELIKKCNALGKPVITATQMLDSMQRNPRPTRAEASDVANAIFDGTDAIMLSGETAAGSYPVEAVQTMHNIASRSEEALNYKEILSKRRDQVGMTITDAIGQSVAHTAINLNAAAIVTPTESGHTARMIAKYRPQAPIVAVTVNDSISRKLALVSGVFAESGQNASSTDEMLEDAVQKSLNSGIVKHGDLIVITAGTVGESGTTNLMKVHTVGDIIAKGQGIGRKSAYGPVVVAQNAKEAEQKMTDGAVLVTKSTDRDMIASLEKASALITEEGGLTSHAAVVGLSLGIPVIVGLENATSILTDGQDITVDASRGAVYQGRASVL
- stoichiometry N: 4

From publication doi:10.1101/2020.07.07.191163 (bioRxiv, 2020)
